Laboratory results as given in paper doi:10.1101/2022.12.01.518643 (bioRxiv, 2022).

What was measured:
[1] = molecular target: soluble DP4 (HLA-DPA1*01:03/DPB1*04:01) (human); assay: fluorescence polarisation
[2] = molecular target: soluble DP4 (HLA-DPA1*01:03/DPB1*04:01) (human); assay: fluorescence polarisation; remark: listed apart in the source

Molecule | IC50 [1] | fold change of binding against the OC43 peptide P4 [2]
OC43 hemagglutinin esterase peptide 259–273 (P1) | < 1000 nM | –
RSFIEDLLFNKVTLA (modifications not checked) [SARS-CoV-2 homolog of the OC43 peptide P4] | – | 10 fold
